Experimental data from US20120165265A1, “Calcium Signaling Modulators Involving STIM and ORAI Proteins” (priority 2009, published 2012).

Experiments:
CRAC channels = molecular target: T1, CRAC channels (Homo sapiens, UniProt Q96D31); assay: [Ca2+]i imaging in HEK 293 cells expressing STIM1 fragment and Orai1; format: cell-based; settings: HEK 293 cells coexpressing construct and Orai1, no store depletion
T1 construct: expressed in transfected cells; host or cells: HEK 293
Description: Ca^2+ Imaging. For FIG. 2, cells were loaded at 37° C. in DMEM with 1 μM fura-2/AM for 30 min. Ratiometric Ca2+ imaging was performed at 340 and 380 nm in 2 mM Ca2+ Ringer's solution with a Nikon Eclipse 2000-U inverted microscope equipped with a fluorescent arc lamp, excitation filter wheel, and a Hamamatsu Orca CCD camera. Images were collected using Openlab (Improvision) and analyzed using Igor Pro.
To determine if CAD activates store operated Ca^2+ influx in cells, we measured [Ca^2+]i in HEK 293 cells expressing CAD and Orai1.

[1] = molecular target: T2, Orai1-ΔN, Orai1-ΔC, Orai1-ΔN73 (Homo sapiens, UniProt Q96D31); assay: Whole-cell recording of ICRAC with truncated Orai1 and CAD; format: cell-based; settings: cells expressing Orai1-ΔN73
T2 construct: expressed in transfected cells; host or cells: HEK 293
Description: Electrophysiology. HEK 293 cells were transfected 8-24 h prior to electrophysiology experiments with STIM1- and Orai1-derived constructs in a 1:1 mass ratio using Lipofectamine 2000. […] ICRAC in cells cultured without LaCl3 was similar to that in cells cultured with LaCl3, but most cells without LaCl3 died soon after break-in.
Currents were recorded using standard whole-cell patch clamp techniques (Prakriya and Lewis, 2001). Pipettes of resistance 2-5 MΩ were filled with an internal solution containing (in mM) 150 Cs aspartate, 8 MgCl2, 10 EGTA, and 10 HEPES (pH 7.2 with CsOH). Currents were sampled at 5 kHz and filtered at 2 kHz, and all voltages were corrected for the junction potential of the pipette solution relative to Ringer's in the bath (−13 mV).
Patch-clamp Experiments. Pipette-membrane seals were formed in 2 mM Ca^2+ Ringer's solution. After break-in to the whole-cell configuration, voltage stimuli consisting of a 100-ms step to −100 mV followed by a 100-ms ramp from −100 to +100 mV were delivered every 5 s from the holding potential of +30 mV. After the currents reached a steady level (˜300 s for wild-type STIM1), the external solution was changed via a multibarrel local perfusion pipette to a high-Ca^2+ Ringer's containing (in mM) 130 NaCl, 4.5 KCl, 20 CaCl2, 1 MgCl2, 10 D-glucose, and 5 HEPES (pH 7.4 with NaOH). […]

Orai1 [2] = molecular target: T3, Orai1 (Homo sapiens, UniProt Q96D31); assay: Yeast split ubiquitin interaction assay, CAD with Orai1; format: binding; settings: NubG-Orai1 and CAD-Cub-LV in yeast
Description: Split-Ubiquitin Yeast Two Hybrid Assay. Screening was performed according to the manufacturer's instructions (Dualsystems Biotech). Transformed yeast were selected on media lacking Trp and Leu (-TL). Interaction was observed by cell growth on plates lacking Trp, Leu, and His (TLH) in the presence of 3-aminotriazole (3-AT). Protein interactions were also assessed by measuring lacZ activity using the chromogenic substrate X-gal (5-bromo-4-chloro-3-indolyl-β-galactopyranoside).
Split-Ubiquitin Yeast Two Hybrid Assay. To generate fusion proteins with the N-terminal half of ubiquitin (Nub), full-length or fragments of Orai1 were amplified by PCR and cloned into the pDL2-Nubx vector (Dualsystems Biotech). The Nub sequence in the pDL2-Nubx plasmid contains a point mutation (NubG) that abolishes the spontaneous association of Nub to the C-terminal half of ubiquitin (Cub). The CAD was subcloned into the pAMBV4 vector, which contains Cub fused to a chimeric transcription factor consisting of the DNA binding domain from LexA and the VP16 transactivation domain.
As a third test for association of CAD and Orai1 in vivo, and to map the interaction domains of Orai1 we introduced both proteins into a yeast split ubiquitin interaction system. […]

Orai1 [3] = molecular target: T3, Orai1; assay: Co-immunoprecipitation with Orai1 in HEK 293T cells; format: binding; design: expressed in transfected cells; host or cells: HEK 293; settings: 150 mM salt, 1% Triton X-100
Description: Immunoprecipitation and Immunoblot Analysis. Transfected HEK 293T cells (12-24 h) were washed with PBS and lysed in 50 mM Tris-HCl pH 7.5, 150 mM NaCl, 1% Triton X-100, and protease inhibitors. Lysates were spun at 12,000 rpm for 10 min, and the supernatant was incubated with anti-Flag M2 agarose beads (Sigma), or anti-myc or -HA antibody followed by IgG agarose beads (Pierce). Lysates and immunoprecipitates were subjected to SDS-PAGE, probed with HRP-conjugated secondary antibody and detected by enhanced chemiluminescence (Pierce).
CAD Associates with Orai1 in vivo and in vitro. Because cytosolic CAD is a potent activator of Orai1 channels and is not associated with the ER, we hypothesized that CAD binds to Orai1. To test this idea, we first expressed YFP-CAD with or without myc-Orai1 in HEK 293 cells and examined its intracellular localization. […] To provide additional evidence that CAD and Orai1 are part of the same protein complex we expressed Flag-tagged CAD and GFP-tagged Orai1 in HEK 293T cells and immunoprecipitated CAD with anti-Flag antibodies. GFP-myc-Orai1 was detected in the immunoprecipitates from cells co-expressing CAD and Orai1 but not from cells expressing CAD or Orai1 alone (FIG. 3B).
Thus, CAD and Orai1 form a protein complex in mammalian cells.

T3 sequence (Q96D31 whole entry): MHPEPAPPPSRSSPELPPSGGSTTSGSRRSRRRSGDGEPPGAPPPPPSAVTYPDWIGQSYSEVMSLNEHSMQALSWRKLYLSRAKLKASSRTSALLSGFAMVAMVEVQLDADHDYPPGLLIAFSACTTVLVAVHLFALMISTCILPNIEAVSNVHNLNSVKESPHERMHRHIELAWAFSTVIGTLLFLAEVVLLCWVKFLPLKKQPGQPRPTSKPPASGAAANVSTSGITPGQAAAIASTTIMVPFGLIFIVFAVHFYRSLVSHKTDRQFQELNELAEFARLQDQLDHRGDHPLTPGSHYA
T1 sequence (Q96D31 whole entry, the tested form may be a part): as the sequence (Q96D31 whole entry) above
T2 sequence (Q96D31 74-301): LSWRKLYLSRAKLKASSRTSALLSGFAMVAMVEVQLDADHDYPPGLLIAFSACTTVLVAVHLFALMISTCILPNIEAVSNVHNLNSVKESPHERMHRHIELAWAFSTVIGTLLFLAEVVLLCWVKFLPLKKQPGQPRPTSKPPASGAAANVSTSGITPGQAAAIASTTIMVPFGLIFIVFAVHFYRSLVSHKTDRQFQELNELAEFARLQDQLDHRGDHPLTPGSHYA

CAD: 107-residue CRAC activation domain within the C-terminus of STIM1 (aa 342-448), SEQ ID NO:1
[Ca2+]i / CRAC channel activation (CRAC channels): sustained [Ca^2+]i elevation
constitutive ICRAC activation [1]: constitutively activated ICRAC
interaction with Orai1 (growth on His selection, b-gal) (Orai1 [2]): interact with each other
co-immunoprecipitation with Orai1 (Orai1 [3]): co-immunoprecipitates with Orai1
